Source: paper PMC5798601 (Cell, 2017)
Values belong to the molecule of their own block, whether it stands above or below them.

Experiments:
[1] = target: 32P-labeled mtRNAP (Figure 5C; truncation not stated) (human) (UniProt O00411); assay: cross-linking
mtRNAP Δ150;TEFM WT = mtRNAP Δ150;TEFM WT (human;human, UniProt O00411;Q96QE5 151-1230;36-360, |); assay: size exclusion chromatography
[2] = target: Δ150 mtRNAP (human mitochondrial RNA polymerase) (human, UniProt O00411 151-1230); assay: crystal structure
Chain of Δ150 mtRNAP (human mitochondrial RNA polymerase) (O00411 151-1230, stated change not applied): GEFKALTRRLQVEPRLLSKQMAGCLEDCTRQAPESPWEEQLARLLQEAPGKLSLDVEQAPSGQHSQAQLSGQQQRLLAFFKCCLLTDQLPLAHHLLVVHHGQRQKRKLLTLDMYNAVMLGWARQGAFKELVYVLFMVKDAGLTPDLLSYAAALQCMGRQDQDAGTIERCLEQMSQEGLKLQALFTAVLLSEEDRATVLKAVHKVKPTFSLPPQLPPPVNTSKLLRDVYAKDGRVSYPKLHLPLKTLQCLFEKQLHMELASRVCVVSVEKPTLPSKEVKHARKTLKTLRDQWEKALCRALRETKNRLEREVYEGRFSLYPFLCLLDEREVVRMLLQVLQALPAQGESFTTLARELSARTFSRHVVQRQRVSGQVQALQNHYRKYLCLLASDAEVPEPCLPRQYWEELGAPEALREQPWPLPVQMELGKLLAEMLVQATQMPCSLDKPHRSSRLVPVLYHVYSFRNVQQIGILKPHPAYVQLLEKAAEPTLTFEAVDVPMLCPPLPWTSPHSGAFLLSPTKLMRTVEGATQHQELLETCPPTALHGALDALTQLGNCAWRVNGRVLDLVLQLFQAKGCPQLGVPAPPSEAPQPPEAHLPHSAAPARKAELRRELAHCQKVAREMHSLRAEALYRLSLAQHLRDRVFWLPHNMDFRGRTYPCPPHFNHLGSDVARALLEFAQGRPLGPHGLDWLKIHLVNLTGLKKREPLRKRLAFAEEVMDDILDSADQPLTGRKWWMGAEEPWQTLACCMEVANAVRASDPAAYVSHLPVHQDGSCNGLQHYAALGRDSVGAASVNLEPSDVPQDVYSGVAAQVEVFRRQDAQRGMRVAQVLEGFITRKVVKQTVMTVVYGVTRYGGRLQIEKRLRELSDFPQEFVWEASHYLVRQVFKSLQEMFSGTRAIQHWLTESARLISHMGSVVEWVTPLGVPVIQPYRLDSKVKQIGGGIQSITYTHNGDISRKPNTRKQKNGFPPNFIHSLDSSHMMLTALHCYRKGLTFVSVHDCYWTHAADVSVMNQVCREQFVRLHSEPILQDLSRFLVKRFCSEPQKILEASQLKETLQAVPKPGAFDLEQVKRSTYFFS

crystal structure = target: the molecule itself; assay: crystal structure
610Bpa-mtRNAP (human) = 610Bpa-mtRNAP (human) (UniProt O00411); assay: cross-linking
Chain of 610Bpa-mtRNAP (human) (O00411 42-609): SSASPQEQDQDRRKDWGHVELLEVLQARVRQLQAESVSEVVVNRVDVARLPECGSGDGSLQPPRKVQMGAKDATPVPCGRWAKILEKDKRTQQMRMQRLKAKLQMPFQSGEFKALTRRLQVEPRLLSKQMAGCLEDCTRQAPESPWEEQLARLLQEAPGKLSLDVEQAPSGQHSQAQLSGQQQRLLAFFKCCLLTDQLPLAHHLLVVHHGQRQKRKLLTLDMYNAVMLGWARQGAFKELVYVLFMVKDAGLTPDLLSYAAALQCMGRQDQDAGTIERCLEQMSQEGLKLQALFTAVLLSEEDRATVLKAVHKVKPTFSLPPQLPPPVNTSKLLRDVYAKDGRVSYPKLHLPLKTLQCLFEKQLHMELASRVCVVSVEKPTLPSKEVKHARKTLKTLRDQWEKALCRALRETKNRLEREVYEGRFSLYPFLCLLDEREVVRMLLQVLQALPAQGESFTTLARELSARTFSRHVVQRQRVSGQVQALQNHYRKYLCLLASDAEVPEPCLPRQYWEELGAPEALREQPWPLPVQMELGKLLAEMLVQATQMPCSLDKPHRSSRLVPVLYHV

SEC = target: the molecule itself; assay: SEC
[3] = target: mtRNAP Δ150;TEFM Δ135 (CTD + linker) (human;human, UniProt O00411;Q96QE5 151-1230;136-360, |); assay: crystal structure
Chain of mtRNAP Δ150;TEFM Δ135 (CTD + linker) (O00411 151-1230, stated change not applied, one chain of several): as the sequence (O00411 151-1230, stated change not applied) above

Chain of 32P-labeled mtRNAP (Figure 5C; truncation not stated) (human) (O00411 42-1230): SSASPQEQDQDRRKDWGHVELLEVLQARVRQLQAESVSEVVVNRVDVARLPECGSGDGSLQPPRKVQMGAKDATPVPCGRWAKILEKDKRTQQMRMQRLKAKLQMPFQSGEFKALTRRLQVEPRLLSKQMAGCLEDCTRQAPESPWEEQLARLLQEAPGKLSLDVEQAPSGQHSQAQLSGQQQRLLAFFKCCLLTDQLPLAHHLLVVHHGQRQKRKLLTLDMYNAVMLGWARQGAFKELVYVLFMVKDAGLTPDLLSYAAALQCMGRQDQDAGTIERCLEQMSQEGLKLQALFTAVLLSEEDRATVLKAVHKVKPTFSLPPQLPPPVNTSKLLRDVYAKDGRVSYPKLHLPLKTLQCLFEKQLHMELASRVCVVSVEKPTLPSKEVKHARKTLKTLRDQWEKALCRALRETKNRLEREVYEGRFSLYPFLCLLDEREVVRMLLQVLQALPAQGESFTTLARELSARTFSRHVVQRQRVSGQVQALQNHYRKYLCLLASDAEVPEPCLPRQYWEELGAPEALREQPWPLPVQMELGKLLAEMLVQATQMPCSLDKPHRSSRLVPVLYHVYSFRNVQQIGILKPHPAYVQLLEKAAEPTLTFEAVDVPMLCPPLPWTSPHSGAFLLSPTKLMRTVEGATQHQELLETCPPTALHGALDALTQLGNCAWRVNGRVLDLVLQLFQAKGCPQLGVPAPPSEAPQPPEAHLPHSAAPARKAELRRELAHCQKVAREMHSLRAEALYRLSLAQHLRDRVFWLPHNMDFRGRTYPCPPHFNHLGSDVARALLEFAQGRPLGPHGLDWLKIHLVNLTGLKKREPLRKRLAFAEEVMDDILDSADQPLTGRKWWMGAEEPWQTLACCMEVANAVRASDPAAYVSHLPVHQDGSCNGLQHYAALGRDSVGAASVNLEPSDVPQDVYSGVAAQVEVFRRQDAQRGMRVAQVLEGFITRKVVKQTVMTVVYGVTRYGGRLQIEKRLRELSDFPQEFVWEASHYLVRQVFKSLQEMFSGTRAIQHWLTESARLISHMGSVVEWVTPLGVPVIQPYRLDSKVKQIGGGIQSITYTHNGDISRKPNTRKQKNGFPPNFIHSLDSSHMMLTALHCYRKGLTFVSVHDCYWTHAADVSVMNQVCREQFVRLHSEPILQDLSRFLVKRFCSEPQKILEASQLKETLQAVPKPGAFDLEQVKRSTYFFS
Chain of mtRNAP Δ150;TEFM WT (O00411 151-1230, stated change not applied, one chain of several): as the sequence (O00411 151-1230, stated change not applied) above

cross-linking efficiency [1]: > 30%
Molecule: Bpa312 TEFM (from UniProt Q96QE5 36-360) (natural protein)

cross-linking efficiency [1]: > 30%
Molecule: Bpa310 TEFM (from UniProt Q96QE5 36-360) (natural protein)

cross-linking efficiency [1]: > 30%
Molecule: Bpa309 TEFM (from UniProt Q96QE5 36-360) (natural protein)

binding result [2]: binds
B2: Δ135 TEFM (CTD with the inter-domain linker, residues 136-360) (domain or fragment, human, UniProt Q96QE5 136-360, looked up)
chain: PKTGREKRKSPENRFLRKLLKPDIERERLKAVNSIISIVFGTRRIAWAHLDRKLTVLDWQQSDRWSLMRGIYSSSVYLEEISSIISKMPKADFYVLEKTGLSIQNSSLFPILLHFHIMEAMLYALLNKTFAQDGQHQVLSMNRNAVGKHFELMIGDSRTSGKELVKQFLFDSILKADPRVFFPSDKIVHYRQMFLSTELQRVEELYDSLLQAIAFYELAVFDSQP
binding result (crystal structure): binds

Further lines, the molecule ahead of its results:

Molecule: Bpa308 TEFM (from UniProt Q96QE5 36-360) (natural protein)
cross-linking efficiency [1]: > 30%

B1: cross-linking scaffold NT19HH/TS16HH/RNA14HH (mixed)
DNA 1: CATGGGGTAACTAGTTCGACGCCAGACG
DNA 2: CGTCTGGCGTGATCACGACTACCCCATG
RNA: UGAUGGUAAUGCUCCUGUCGUGAUC
binding result (mtRNAP Δ150;TEFM WT): binds

B3: 32P-labeled TEFM (natural protein)
chain: KSTTPKKITPNVTFCDENAKEPENALDKLFSSEQQASILHVLNTASTKELEAFRLLRGRRSINIVEHRENFGPFQNLESLMNVPLFKYKSTVQVCNSILCPKTGREKRKSPENRFLRKLLKPDIERERLKAVNSIISIVFGTRRIAWAHLDRKLTVLDWQQSDRWSLMRGIYSSSVYLEEISSIISKMPKADFYVLEKTGLSIQNSSLFPILLHFHIMEAMLYALLNKTFAQDGQHQVLSMNRNAVGKHFELMIGDSRTSGKELVKQFLFDSILKADPRVFFPSDKIVHYRQMFLSTELQRVEELYDSLLQAIAFYELAVFDSQP
modifications: 32P-labeled
cross-linking efficiency (610Bpa-mtRNAP (human)): 30%

B4: WT TEFM (human mitochondrial transcription elongation factor) (natural protein, UniProt Q96QE5 36-360, looked up)
chain: KSTTPKKITPNVTFCDENAKEPENALDKLFSSEQQASILHVLNTASTKELEAFRLLRGRRSINIVEHRENFGPFQNLESLMNVPLFKYKSTVQVCNSILCPKTGREKRKSPENRFLRKLLKPDIERERLKAVNSIISIVFGTRRIAWAHLDRKLTVLDWQQSDRWSLMRGIYSSSVYLEEISSIISKMPKADFYVLEKTGLSIQNSSLFPILLHFHIMEAMLYALLNKTFAQDGQHQVLSMNRNAVGKHFELMIGDSRTSGKELVKQFLFDSILKADPRVFFPSDKIVHYRQMFLSTELQRVEELYDSLLQAIAFYELAVFDSQP
stoichiometry N (SEC): 2

B5: EC scaffold NT25HH/TS22HH/RNA14mt (mixed)
DNA 1: GAACATGGTGTAATTATTTCGACGCCAGACGAAC
DNA 2: GTTCGTCTGGCGTGCGCGCCGCTACACCATGTTC
RNA: AGUCUGCGGCGCGC
binding result [3]: binds
